Measurements: PMC6555819, “Comprehensive study of nuclear receptor DNA binding provides a revised framework for understanding receptor specificity”
Changes are numbered by the printed parent chain.

B1: NRC3_wobSeed23_DR0_A9G_o1 (dsDNA)
DNA 1: GCGGAACGGGGGCAAGTTGATAGCAGAGTTTGATGGGCGATTGACAGCGTAGAATGAAGG
DNA 2: CCTTCATTCTACGCTGTCAATCGCCCATCAAACTCTGCTATCAACTTGCCCCCGTTCCGC
B2: NRC3_wobSeed61_DR2_T5C_o1 (dsDNA)
DNA 1: GCCGCCCAAGGTCAGCAGGTCAGTGAAAGCGACGTGGCGATTGACAGCGTAGAATGAAGG
DNA 2: CCTTCATTCTACGCTGTCAATCGCCACGTCGCTTTCACTGACCTGCTGACCTTGGGCGGC
B3: NRC3_wobSeed138_DR5_C7A_o1 (dsDNA)
DNA 1: GCGATAAAGGGTCAGCTAGAGGCCAGAGTATGGAAAGCGATTGACAGCGTAGAATGAAGG
DNA 2: CCTTCATTCTACGCTGTCAATCGCTTTCCATACTCTGGCCTCTAGCTGACCCTTTATCGC
B4: NRC3_wobSeed138_DR5_G9A_o1 (dsDNA)
DNA 1: B3 DNA 1 with A7C, G9A
DNA 2: B3 DNA 2 with C52T, T54G
B5: NRC3_wobSeed138_DR5_A18T_o1 (dsDNA)
DNA 1: B3 DNA 1 with A7C, A18T
DNA 2: B3 DNA 2 with T43A, T54G
B6: NRC3_wobSeed30_DR1_G7T_o1 (dsDNA)
DNA 1: GCACTATCAGGCCAAGGGTCACTCAAGATTAGTCCGGCGATTGACAGCGTAGAATGAAGG
DNA 2: CCTTCATTCTACGCTGTCAATCGCCGGACTAATCTTGAGTGACCCTTGGCCTGATAGTGC
B7: NRC3_wobSeed34_DR1_A24C_o1 (dsDNA)
DNA 1: GCATCGAAAGGTCGAAGGTGAGTCTACCCACCCGAAGCGATTGACAGCGTAGAATGAAGG
DNA 2: CCTTCATTCTACGCTGTCAATCGCTTCGGGTGGGTAGACTCACCTTCGACCTTTCGATGC
B8: NRC3_wobSeed82_DR3_A15T_o1 (dsDNA)
DNA 1: GCATCGAAAGGTCGTCGAGGTGAGTATACACCGTTTGCGATTGACAGCGTAGAATGAAGG
DNA 2: CCTTCATTCTACGCTGTCAATCGCAAACGGTGTATACTCACCTCGACGACCTTTCGATGC
B9: NRC3_wobSeed112_DR4_T8A_o1 (dsDNA)
DNA 1: GCTAGCCAAGGTCAGATCGGGCCAGTATACGCTATAGCGATTGACAGCGTAGAATGAAGG
DNA 2: CCTTCATTCTACGCTGTCAATCGCTATAGCGTATACTGGCCCGATCTGACCTTGGCTAGC
B10: NRC3_wobSeed130_DR5_C19T_o1 (dsDNA)
DNA 1: GCCTCGAAAGGTCGTGCTTAGGTGAGTATACCAAACGCGATTGACAGCGTAGAATGAAGG
DNA 2: CCTTCATTCTACGCTGTCAATCGCGTTTGGTATACTCACCTAAGCACGACCTTTCGAGGC
B11: NRC3_wobSeed130_DR5_G16C_o1 (dsDNA)
DNA 1: B10 DNA 1 with G16C, T19C
DNA 2: B10 DNA 2 with A42G, C45G
B12: NRC3_wobSeed130_DR5_A30G_o1 (dsDNA)
DNA 1: B10 DNA 1 with T19C, A30G
DNA 2: B10 DNA 2 with T31C, A42G
B13: NRC3_wobSeed119_DR4_o1 (dsDNA)
DNA 1: GCGGAACGAGGGCATTCGAGTTGATAGCATGGCGATGCGATTGACAGCGTAGAATGAAGG
DNA 2: CCTTCATTCTACGCTGTCAATCGCATCGCCATGCTATCAACTCGAATGCCCTCGTTCCGC
B14: NRC3_wobSeed29_DR1_C13G_o1 (dsDNA)
DNA 1: GCGCTTACGGGTGAAAGGTTATAGCATGAATAGAATGCGATTGACAGCGTAGAATGAAGG
DNA 2: CCTTCATTCTACGCTGTCAATCGCATTCTATTCATGCTATAACCTTTCACCCGTAAGCGC
B15: NRC3_wobSeed58_DR2_G23C_o1 (dsDNA)
DNA 1: GCATCGAAAGGTCGTGAGGTGACTATACAGAAAGGCGCGATTGACAGCGTAGAATGAAGG
DNA 2: CCTTCATTCTACGCTGTCAATCGCGCCTTTCTGTATAGTCACCTCACGACCTTTCGATGC
B16: NRC3_wobSeed137_DR5_A5G_o1 (dsDNA)
DNA 1: GCATGTGTAGGTTACATCCGGGTCATTCAGGCTATGGCGATTGACAGCGTAGAATGAAGG
DNA 2: CCTTCATTCTACGCTGTCAATCGCCATAGCCTGAATGACCCGGATGTAACCTACACATGC
B17: NRC3_wobSeed137_DR5_T6C_o1 (dsDNA)
DNA 1: B16 DNA 1 with G5A, T6C
DNA 2: B16 DNA 2 with A55G, C56T
B18: NRC3_wobSeed106_DR4_G6C_o1 (dsDNA)
DNA 1: GCCTCCAAAGGTCGGTTGAGGTGAGTATACGGATAAGCGATTGACAGCGTAGAATGAAGG
DNA 2: CCTTCATTCTACGCTGTCAATCGCTTATCCGTATACTCACCTCAACCGACCTTTGGAGGC
B19: NRC3_wobSeed3_DR0_A9G_o1 (dsDNA)
DNA 1: GCGCTCGGGGGACAAGGTCAGAGCTTTGTCCGTAGAGCGATTGACAGCGTAGAATGAAGG
DNA 2: CCTTCATTCTACGCTGTCAATCGCTCTACGGACAAAGCTCTGACCTTGTCCCCCGAGCGC
B20: NRC3_wobSeed50_DR2_C25T_o1 (dsDNA)
DNA 1: GCCCTAGTTGGTCAGGAGGTCACATACCGGATATGAGCGATTGACAGCGTAGAATGAAGG
DNA 2: CCTTCATTCTACGCTGTCAATCGCTCATATCCGGTATGTGACCTCCTGACCAACTAGGGC
B21: NRC3_wobSeed21_DR0_A7T_o1 (dsDNA)
DNA 1: GCCGTCTAAGTTCAAGGTAACGTAACAGAAAGCAGCGCGATTGACAGCGTAGAATGAAGG
DNA 2: CCTTCATTCTACGCTGTCAATCGCGCTGCTTTCTGTTACGTTACCTTGAACTTAGACGGC
B22: NRC3_wobSeed5_DR0_C4T_o1 (dsDNA)
DNA 1: GCCTTTACGGGTCAAGGTTATAGCACGGGTGGTACGGCGATTGACAGCGTAGAATGAAGG
DNA 2: CCTTCATTCTACGCTGTCAATCGCCGTACCACCCGTGCTATAACCTTGACCCGTAAAGGC
B23: NRC3_wobSeed5_DR0_A22C_o1 (dsDNA)
DNA 1: B22 DNA 1 with T4C, A22C
DNA 2: B22 DNA 2 with T39G, A57G
B24: NRC3_wobSeed5_DR0_T5G_o1 (dsDNA)
DNA 1: B22 DNA 1 with T4C, T5G
DNA 2: B22 DNA 2 with A56C, A57G
B25: NRC3_wobSeed5_DR0_G9A_o1 (dsDNA)
DNA 1: B22 DNA 1 with T4C, G9A
DNA 2: B22 DNA 2 with C52T, A57G
B26: NRC3_wobSeed140_DR5_A22G_o1 (dsDNA)
DNA 1: GCAGAATGAGGTTATACGTAGGTCAGGGAAGAAAGTGCGATTGACAGCGTAGAATGAAGG
DNA 2: CCTTCATTCTACGCTGTCAATCGCACTTTCTTCCCTGACCTACGTATAACCTCATTCTGC
B27: NRC3_wobSeed72_DR2_o1 (dsDNA)
DNA 1: GCTCGAGTAGGTTACGGGGGCATTCAGGGATGAAGAGCGATTGACAGCGTAGAATGAAGG
DNA 2: CCTTCATTCTACGCTGTCAATCGCTCTTCATCCCTGAATGCCCCCGTAACCTACTCGAGC
B28: NRC3_wobSeed13_DR0_T18G_o1 (dsDNA)
DNA 1: GCCGTCCAAGGTCAAGGGCAGTGAAAGAGACTCGAAGCGATTGACAGCGTAGAATGAAGG
DNA 2: CCTTCATTCTACGCTGTCAATCGCTTCGAGTCTCTTTCACTGCCCTTGACCTTGGACGGC
B29: NRC3_wobSeed101_DR4_C18T_o1 (dsDNA)
DNA 1: GCCCTTACGGGTCACTCTAGGTTATAGCATCGGAGTGCGATTGACAGCGTAGAATGAAGG
DNA 2: CCTTCATTCTACGCTGTCAATCGCACTCCGATGCTATAACCTAGAGTGACCCGTAAGGGC
B30: NRC3_wobSeed66_DR2_C15T_o1 (dsDNA)
DNA 1: GCAATACAGGGTCATTAGGCCAGAGTAGGTACGAATGCGATTGACAGCGTAGAATGAAGG
DNA 2: CCTTCATTCTACGCTGTCAATCGCATTCGTACCTACTCTGGCCTAATGACCCTGTATTGC
B31: NRC3_wobSeed66_DR2_A17T_o1 (dsDNA)
DNA 1: B30 DNA 1 with T15C, A17T
DNA 2: B30 DNA 2 with T44A, A46G
B32: NRC3_wobSeed66_DR2_A27G_o1 (dsDNA)
DNA 1: B30 DNA 1 with T15C, A27G
DNA 2: B30 DNA 2 with T34C, A46G
B33: NRC3_wobSeed142_DR5_G22T_o1 (dsDNA)
DNA 1: GCATACCAAGGTGATCGTGAGTTCGTTGATACTAACGCGATTGACAGCGTAGAATGAAGG
DNA 2: CCTTCATTCTACGCTGTCAATCGCGTTAGTATCAACGAACTCACGATCACCTTGGTATGC

The binders below were run against PXR:RXRa (Homo sapiens, UniProt O75469;P19793 full;full) (assay: no ligand; PBM; 270 nM : 90 nM RXRa; PBS pH 7.4, 2% milk, 0.02% Triton X-100, 1 mM DTT, BSA, 0.4 mg/ml salmon testes DNA). Conditions: tags: His kept;His cleaved; copies: 1;1; label: surface-attached array probe.
Method in brief: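 Each nuclear receptor dimer, without ligand, was incubated for 1 h on custom Agilent 4×180K protein-binding microarrays. Binding was detected with antibodies against each partner (one per run), and scanned fluorescence was regression-normalized. The binding z-scores are referenced to random human genomic background probes.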

Sequence of PXR:RXRa (O75469 whole entry, chain 1 of 2): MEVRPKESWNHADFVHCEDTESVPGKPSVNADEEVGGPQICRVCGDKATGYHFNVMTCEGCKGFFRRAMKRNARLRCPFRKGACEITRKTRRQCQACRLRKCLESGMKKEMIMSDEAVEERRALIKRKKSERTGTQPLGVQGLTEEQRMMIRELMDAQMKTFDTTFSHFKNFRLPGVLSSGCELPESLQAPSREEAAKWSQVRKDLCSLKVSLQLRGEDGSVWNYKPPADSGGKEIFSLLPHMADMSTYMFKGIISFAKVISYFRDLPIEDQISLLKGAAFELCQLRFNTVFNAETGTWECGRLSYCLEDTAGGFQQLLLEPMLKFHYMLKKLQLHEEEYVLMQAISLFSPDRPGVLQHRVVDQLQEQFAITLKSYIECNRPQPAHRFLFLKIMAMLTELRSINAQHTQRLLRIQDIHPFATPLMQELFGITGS
Sequence of PXR:RXRa (P19793 whole entry, chain 2 of 2): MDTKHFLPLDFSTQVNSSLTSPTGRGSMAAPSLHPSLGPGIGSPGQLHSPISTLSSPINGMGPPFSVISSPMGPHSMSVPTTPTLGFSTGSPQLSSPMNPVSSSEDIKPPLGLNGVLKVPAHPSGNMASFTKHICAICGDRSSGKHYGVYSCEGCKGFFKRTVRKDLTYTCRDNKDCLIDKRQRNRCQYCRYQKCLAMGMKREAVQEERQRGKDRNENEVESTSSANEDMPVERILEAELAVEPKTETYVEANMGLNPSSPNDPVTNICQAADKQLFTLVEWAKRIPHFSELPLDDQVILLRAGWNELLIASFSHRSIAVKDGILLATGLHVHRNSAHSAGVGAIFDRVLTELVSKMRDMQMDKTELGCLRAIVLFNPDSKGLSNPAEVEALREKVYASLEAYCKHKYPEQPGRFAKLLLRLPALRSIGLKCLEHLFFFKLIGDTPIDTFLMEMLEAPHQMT

Row | Binder | binding signal
1 | B1 | 3.23 PBM z-score against 500 random probes
2 | B2 | 3.73 PBM z-score against 500 random probes
3 | B3 | 3.54 PBM z-score against 500 random probes
4 | B4 | 3.38 PBM z-score against 500 random probes
5 | B5 | 3.18 PBM z-score against 500 random probes
6 | B6 | 3.31 PBM z-score against 500 random probes
7 | B7 | 3.17 PBM z-score against 500 random probes
8 | B8 | 3.66 PBM z-score against 500 random probes
9 | B9 | 3.44 PBM z-score against 500 random probes
10 | B10 | 3.37 PBM z-score against 500 random probes
11 | B11 | 3.28 PBM z-score against 500 random probes
12 | B12 | 3.26 PBM z-score against 500 random probes
13 | B13 | 3.4 PBM z-score against 500 random probes
14 | B14 | 3.2 PBM z-score against 500 random probes
15 | B15 | 3.52 PBM z-score against 500 random probes
16 | B16 | 3.72 PBM z-score against 500 random probes
17 | B17 | 3.61 PBM z-score against 500 random probes

Row | Binder | binding signal
18 | B18 | 3.35 PBM z-score against 500 random probes
19 | B19 | 3.22 PBM z-score against 500 random probes
20 | B20 | 3.69 PBM z-score against 500 random probes
21 | B21 | 3.59 PBM z-score against 500 random probes
22 | B22 | 3.7 PBM z-score against 500 random probes
23 | B23 | 3.55 PBM z-score against 500 random probes
24 | B24 | 3.48 PBM z-score against 500 random probes
25 | B25 | 3.62 PBM z-score against 500 random probes
26 | B26 | 3.29 PBM z-score against 500 random probes
27 | B27 | 3.16 PBM z-score against 500 random probes
28 | B28 | 3.34 PBM z-score against 500 random probes
29 | B29 | 3.67 PBM z-score against 500 random probes
30 | B30 | 3.57 PBM z-score against 500 random probes
31 | B31 | 3.45 PBM z-score against 500 random probes
32 | B32 | 3.32 PBM z-score against 500 random probes
33 | B33 | 3.5 PBM z-score against 500 random probes
